The record followed here is article PMC6820557, “Discovery of dual-activity small-molecule ligands of Pseudomonas aeruginosa LpxA and LpxD using SPR and X-ray crystallography” (Scientific Reports, 2019).

Data set [1] concerns the molecule itself. Briefly: SEC; HiLoad 16/60 Superdex 75; 20 mM Tris-HCl pH 8.6, 250 mM NaCl.
Data set [2] deals with the molecule itself. Nature of the data set: crystal structure; LpxA soaked with compound 1 (2.10 Å) or compound 2 (2.00 Å); P212121, six monomers per asymmetric unit; 12% PEG 1000, 0.2 M calcium acetate, 0.1 M imidazole pH 7.0.
Data set [3] deals with the molecule itself. Nature of the data set: SEC; HiLoad 16/60 Superdex 75; 20 mM Tris pH 8.6, 250 mM NaCl, 1 mM EDTA.

B1: N-terminal His-tagged P. aeruginosa LpxD with a 2 amino acid deletion (enzyme, Pseudomonas aeruginosa, UniProt Q9HXY6 3-353, looked up)
chain: STLSYTLGQLAAHVGAEVRGDADLPIQGLATLQEAGPAQLSFLANPQYRKYLPESRAGAVLLTAADADGFAGTALVVANPYLAYASLSHLFDRKPKAAAGIHPTAIVAADAEVDPSASVGAYAVIESGARIGAGVSIGAHCVIGARSVIGEGGWLAPRVTLYHDVTIGARVSIQSGAVIGGEGFGFANEKGVWQKIAQIGGVTIGDDVEIGANTTIDRGALSDTLIGNGVKLDNQIMIAHNVQIGDHTAMAACVGISGSAKIGRHCMLAGGVGLVGHIEICDNVFVTGMTMVTRSITEPGSYSSGTAMQPAAEWKKSAARIRQLDDMARRLQQLEKRLAAVTSSGDASSDA
notes: LpxD, Pseudomonas aeruginosa; they lay immediately after the N-terminal 18-AA hexahistidine tag and protease site (thrombin site replaced by a TEV site); Parent construct is that of the published structure (PDB 3PMO), with the thrombin site replaced by a TEV site; The mutagenesis primer reads ENLYFQG followed by STLSYT; Two of the deposited entries 6UEC, 6UED, 6UEE, 6UEG hold this construct; also …
B1: the “stoichiometry N” value in data set [1] was 3.

B2: P. aeruginosa LpxA (enzyme, Pseudomonas aeruginosa)
chain: MSLIDPRAIIDPSARLAADVQVGPWSIVGAEVEIGEGTVIGPHVVLKGPTKIGKHNRIYQFSSVGEDTPDLKYKGEPTRLVIGDHNVIREGVTIHRGTVQDRAETTIGDHNLIMAYAHIGHDSVIGNHCILVNNTALAGHVHVDDWAILSGYTLVHQYCRIGAHSFSGMGSAIGKDVPAYVTVFGNPAEARSMNFEGMRRRGFSSEAIHALRRAYKVVYRQGHTVEEALAELAESAAQFPEVAVFRDSIQSATRGITR
notes: LpxA, Pseudomonas aeruginosa; Two of the deposited entries 6UEC, 6UED, 6UEE, 6UEG hold this protein
In the case of B2, the binding result in data set [2] was “binds”.

B3: biotinylated avidity (Avi) tagged LpxA (enzyme, Pseudomonas aeruginosa, UniProt Q9X6P4 1-258, looked up)
chain: B2 chain
modifications: biotin (on the Avi tag)
notes: LpxA, Pseudomonas aeruginosa; gene inserted into the BamHI and HindIII sites of the pAvibir plasmid; printed mass of Avi-LpxA 31.6 kDa; also called Avi-LpxA; source: E. coli Rosetta DE3 pLysS, purified (HisTrap, Superdex 75)
In the case of B3, the “stoichiometry N” value in data set [3] worked out at 3.

B4: biotinylated avidity (Avi) tagged LpxD (enzyme, Pseudomonas aeruginosa, UniProt Q9HXY6 1-353, looked up)
chain: MMSTLSYTLGQLAAHVGAEVRGDADLPIQGLATLQEAGPAQLSFLANPQYRKYLPESRAGAVLLTAADADGFAGTALVVANPYLAYASLSHLFDRKPKAAAGIHPTAIVAADAEVDPSASVGAYAVIESGARIGAGVSIGAHCVIGARSVIGEGGWLAPRVTLYHDVTIGARVSIQSGAVIGGEGFGFANEKGVWQKIAQIGGVTIGDDVEIGANTTIDRGALSDTLIGNGVKLDNQIMIAHNVQIGDHTAMAACVGISGSAKIGRHCMLAGGVGLVGHIEICDNVFVTGMTMVTRSITEPGSYSSGTAMQPAAEWKKSAARIRQLDDMARRLQQLEKRLAAVTSSGDASSDA
modifications: biotin (on the Avi tag)
notes: LpxD, Pseudomonas aeruginosa; gene inserted into the BamHI and HindIII sites of the pAvibir plasmid; printed mass of Avi-LpxD 39.8 kDa; also called Avi-LpxD; source: E. coli Rosetta DE3 pLysS, purified (HisTrap, Superdex 75)
Regarding B4, the “stoichiometry N” value in data set [3] came out at 3.
